Measurements taken from the RNAGym collection of RNA variant scans (doi:10.1073/pnas.2313332121).
Fewer inactive variants are shown than the library holds.

B1: TPR 5TU (parent)
chain: GGAUCUUCUCGAUCUAACAAAAAAGACAAAUCUGCCACAAAGCUUGAGAGCAUCUUCGGAUGCAGAGGCGGCAGCCUUCGGUGGCGCGAUAGCGCCAACGUUCUCAACUAUGACACGCAAAACGCGUGCUCCGUUGAAUGGAGUUUAUCAUG

Variants of: B1
Assay: polymerase ribozyme fitness, log enrichment relative to wild type (log ratio); higher = more active; in vitro selection for triplet polymerase activity
Method in brief: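 Frozen incubation at −7 °C formed the core of a single, triplicate in vitro selection round applied to PCR-built, transcribed mutant libraries of each subunit of a heterodimeric triplet polymerase ribozyme. Extended constructs were gel-excised, captured with streptavidin beads and amplified by RT-PCR, and input and output libraries were Illumina-sequenced with a filter of ≥10 input reads and ≥1 read per output. Fitness is the logarithm of genotype enrichment relative to wild-type enrichment, with inverse-variance-weighted replicate averaging, and the logarithm is base 2.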

Variant | polymerase ribozyme fitness (log ratio)
GGAUCUCCUCGAUCUAACAAAAAAGACAAAUCUGCCACAAAGCUUGAGAGCAUCUUCGGAUGCAGAGGCGGCAGCCUUCGGUGGGGCGAUAGCGCCAACGUUCUCAACUAUGACACGCAAAACGCGUGCUCCGUUGAAUGGAGUUUAUCAUG | -3.47
GGAUCUUCUCGAUCUAACAAAAAAGACAAAUCUGCCACAAAGCUUGAGAGCAUCUUUGGAUGCAGAGGCGGCAGCCUUCGGUGGCGCGAUAGCGCCAACGUUCUCAACUAUGACAUGCAAAACGCGUGCUCCGUUGAACGGAGUUUAUCAUG | ≤ -4.2
GGAUCUUCUCGAUCUAAGAAAAAAGACAAAUCUGCCACAAAGCUUGAGAGCAUCUUCGGAUGCAGAGGCGGGAGCCUUCGGUGCCGCGAUAGCGCCAACGUUCUCAACUAUGACACGCAAAACGCGUGCUCCGUUGAAUGGAGUUUAUCAUG | ≤ -4.2
GGAUCUUCUCGAUCUAACAAAAAAGACAAAUCUGCCACAAAGCUUGAGAGCAUCUUCGGAUGCAGAGGCGGCAGCCUUUGGUGGCGCGAUAGCCCCAACGUUCUCAACUAUGACACGCAAAACGCGUGCUCCGUUGAAUGGAGUUUAUCAUG | -3.64
GGAUCUUCUCGAUCUAACAAAAAAGACAAUUCUGCCACAAAGCUUGAGAGCAUCUACGGAUGCAGAGGCGGCAGCCUUCGGUGGCGCGAUAGUGCCAACGUUCUCAACUAUGACACGCAAAACGCGUGCUCCGUUGAAUGAAGUUUAUCAUG | ≤ -4.2
GGAUCUUCUCGAUCUAACGAAAAAGACAAAUCUGCCACAAAGCUUGAGAGCAACUUUGGAUGCAGAGGCGGCAGCCUUCGGUGGCGCGAUAGCGCAAACCUUCUCAACUAUGACACGCAAAACGCGUGCUCCGCUGAAUGGACUUUAUCAUG | ≤ -4.2
GGAUCUUCUCGAUCUAACAAAAAAGACAAAUCUGCCACAAAGCUUGAGAGCAUCUUCGGAUGCAGAGGCGGCAGCCUUCGGUGGCGCGAUAGCACCAACGUUCUCAACUAUGACAUGCAAAUCGCGUGCUCCGUUGAAUGGAGUUUAUCAUG | -0.787
GGUUCUUCUCGAUCUAACAAAAAAGACAAAUCUGCCACAAAGCUUGAGAGCAUCUUCGUAUGCAGAGGCGGCAGCCUUCGGUGGCGCGAUAGCGCCAACGUUCUCAACUAUGACACGCAAAACGCGUGCUCCGUUGAAUGGAGUUUAUCAUG | -0.0606
GGAUCUUCUCGAUCUAACAAAAAAGUCAAAUCUGCCACAAAGCUUGAGAGCAUCUUCGGAUGCAGAGGCGGCAGCCUUCGGUGGCGCUAUAGCGCCAACGUUCUCAACUAUGACACGGAAAACGCGUGCUCCGUUGAAUGGACUUUAUCAUG | ≤ -4.2
GGAUCUUCUCGAUCUAACAAAAAAGACAAAUCUGCCACAAAGCUUGAGAGCCUCUUCGGAUGCAGAGGCGGCAGCCUUCGGUGGCGCGAUAGCGCCAACGUUCUCAACUAUGACACGCAAAACGCGUGCUCCGUUGAAUGGAGUGUAUCAUG | -1.17
GGAUCUUCUCGAUCUAACAUAAAAGUCAAAUCUGCCACAAAGCUUGAGAGCAUCUUCGGAUGCAGAGGCGGCAGCCUUCGGUCGCGCGAUAGCGCCAACGUUCUCAACUAUGACACGCAAAACGCGUGCUCCGUUGAAUGGAGUUUAUCAUG | ≤ -4.2
GGAUCUUCUCGAUCUAACAAAAAAGACAAAUCUGCCACAAAGCUUGAGAGCAUCUUCGGAUGCAGAGGCGGCCGCCUUCGGUGGCGCGAUAGCGCAAACGUUCUCAACUAUGACACGCAAAACGCGUGCUCCGUUGAAUGGAGUUUAUCAUG | -3.14
GGAUCUUCUCGAGAUAACAAAAAAGACAAAUCUGCCACAAAGCUUGAGAGCAUCUUCGGAUGCAGAGGCGGUAGCCUUCGGUAGCGCGAUAGCGCCAACGUUCUCAACUAUGACACUCAAAACGCGUGCUCCGUUGAAUGGAGUUUAUCAUG | -2.88
GGAUCUUCUCGAUCUACCAAAAAAGACAAAUCUGCCACAAAGCUUGAGAGCAUCUUCGGAUGCAGAGGCGGCGGCGUUCGGCGGGGCGAUAGCGCCAACGUUCUCAACUAUGACACGCAAAACGCGUGCUCCGUUGAAUGGAGUUUAUCAUG | ≤ -4.2
GGAUCUUCUCGAUCUAACAAAAAAGACAAAUCUGCCACAAAGCUUGAGAGCAUCUUCGGAUGCAGAGGCGGCAGCCUUCGGUGGCGCGGUAGCGACAACGUUCUCAACUAUGACACGCAAAACGCGUGCUCCGUUGAAUGGAGUUUAUCAUG | -2.08
GGAUCUUCUCGAUCUAACAAAAAAGACAAAUCUGCCACAAGGCUUGAGAGCAUCUUCGGAUGCAGAGGCGGCAGCCUUCGGUGGCGCGAUAGCGCCAACGUUCUCAACUAUGACACGCAAAACGCGUGCUCCGUUGAAUGGAGUUUAUCAUG | 0.583
GGAUCUUCUCGAUCUAACAAAAAAGACAAAUCUGCCACAAAGCUUGAGGGGAUCUUCGGAUGCAGAGGCGGCAGCCUCCGGUGGCGCGAUAGCGCGAACGUUCUCAACUAUGACACGCAAAACGCGUGCUCCGUUAAAUGGAGUUUAUCAUG | ≤ -4.2
GGAUCUUCUCGAUCUAACAAAAAAGACAAAUCUGCCACAAAGCUUGAGAGCAUCUUCGGAUGCAGAGGCGGCAGCCUUCGGUUGCGCGAUAGGGCCAACGUUCUCAACUAUGACACGCAAUACGCGUGCUCCGUUGAAUGGAGUUUAUCAUG | ≤ -4.2
GGAUCUUCUCGCUCUAACAAAAAAGACAGAUCUGCCACAAAGCUUGAGAGCAUCUUCGGAUGCAGAGGCGGCAGCCUUCGGUGGCGCGAUAGUGCCAACGUUCACAACUAUGACACGCAAAACGCGUGCUCCGAUGAAUGGAGUUUAUCAUG | ≤ -4.2

Variant | polymerase ribozyme fitness (log ratio)
GGAUCUUCUCGAUCUAACAAAAAAGACAAAUCUGCCACAAAGGUUGAGAGCAACUUCGGAUGCAGAGGCGGCAGCCUUCGUCGGCGCGAUAGCGCCAACGUUCUCAACUAUGACACGCAAAACGCGUGCUCCGUUGAAUGGAGUUUAUCAUG | ≤ -4.2
GGAUCUGCUCGAUCUAACAAAGAAGACAAAUCUGCAACAAAGCUUGAGAGCAUCUGCGGAUUCAGAGGCGGCAGCCUUCGGUGGCGCAAUAGCGCCAACGUUCUCAACUAUGACACGCAAAACGCGUGCUCCGUUGAAUGGAGUUUAUCAUG | ≤ -4.2
GGAUCUUCUCGAUCUAACAAAAAAGACAAAUCUGCCACAAAGCUUGCGAACAUCUUCGGAUGCAGAGGCGGCAGCCUUCGGUGGCGCGAUAUCGCCAACGUUCUCAACUAUGACACGCAAAACGCGUGCUCCGUUGAAUGGAGUUUAUCAUG | -1.37
GGAUCUUCUCGAUCUAACAAAAAAGACAUAUCUGCCACAAAGCUUGAGAGCAUUUGUGGAUGCAGAGGCGGCAGCCUUCGGUGGCGCGAUAGUGCCAACGUUUUCAACUAUGACACGCAAAACGCGUGCUCCAUUGAAUGGAGUUUAUCAUG | ≤ -4.2
GGAUCUUCUCGAUCUAACAAAAAAGACAAAUCUGCCACAAAGCUUGAGAGCAUCUUCGGAUGCAGAGGCGGCAGCCUUCGGUGGCGUGAUAGCGCCAACGUUCUCAACGAUGACACGCAAAACGCGCGCUCCGUAGAAUGGAGUUUAUCAUG | -4
GGAUCUUCUCGAUCUAACAAAAAAGACAAAUCUGCCACGAAGCUUGAGAGCAUCUUCAGAUGCAGAGGCGGCAGCCUUCGGUGGCGCGAUAGCGCCAACGUUCUCAACUAUGACACGCAAAACGCGUGCUCCGUUGAAUGGAGUGUAUCAUG | -1.12
GGAUCUUCUCGAUCUAACAAAAAAGACACAUCUGCCACAAAGCUUGAGAGCAUCUUCGGAUGCAGAGGCGGCAGCCUUCGGUGGCGCCAUAUCGCCAACGUUCUCAACUAUGACACGCAAAACGCGUGCUCCGUUGAAUGGAGUUUAUCAUG | ≤ -4.2
GGCUCUUCUCGACCUAACAAAAAAGACGAAUCUGCCACAAAGCUUGAGAGCAUCUUCGGAUGCAGAGGCGGCAGCCUUGCGUGGCGCGAUAGCACCAACGUUCUCAACUAUGACACGCAAAACGCGUGCUCCGUUGAAUGCAGUUUAUCAUG | -4.17
GGAUCUUCUGGAUCUAACAAAAAAGACAAAUCUGCCAUAAAGCUUGAGAGCAUCUUCGGAUGCAGAGGCGGCAGCCUUCGGUGGCGCGAUAGCGACAACGUUCUCAACUAUGACACGCAAAACGCGUGCUCCGUUGAAUGGAGUUUAUCAUG | ≤ -4.2
GGAUCUUCUCGAUCUAACAAAAAAGACAAAUCUGCCACAAAGCUUGAGAGCAUCUUCGGAUGCAGAGGAGGCGGCCUUCGGUGGCGUGAUAGCGCCAACGUUCUCAACUAUGACACGCAAAACGCGUGCUCCGUUGAAUGGAGUUUAUCAUG | ≤ -4.2
GGAUCUUCUCGAUCUAACAAAAAAGACAAAUCUGCUACAAAGCUUGAGAGCAUCUUCGGGUGCAGAGGCGGCAGGCUUCGGUGGCGCGAUACCGCCAACGUUCUCAACUAUGACACGCAAAACGCGUGCUCCGUUGAAUGGAGUUUAUCAUG | ≤ -4.2
GGAUCUUCUCGAUCUAACAAAAAAGACAAAUCUGCCACAAAGCUUGAGAGCAUCUUCGGAUGCAGAGGCGGCGGCCUUCGAUGGUGCGAUAGCGCCAACGUUCUCAACUAUGACACGCAAAACGCGUGCUCCGUUGAAUGGAGUUUAUCAUG | 0.246
GGAUCUUCUCGAUCUACCAAAAAAGACAAAUCUGCCAAAAAGCUUGAGAGCAUCUUCGGAUGCAGAGGCGGCAGCCUUCGGUGGCGCGAUAGCACCAACGUUCUCAACUAUGACACGCAAAACGCGUGCUCCGUUGAAUGGAGUUUAUCAUG | 0.661
GGAUCUUCUCGAUCUAACAAAAAAGACAAAUCUGCCACAAAGCUUGAGAGAAUCUUCGGAUGCAGAGGCGGCAGCCUUCGGUGCCGCGAUAGCGCCAACGUUCUCAACUAUGACACGCAAAACGCGUGCUCCGUUGAAUGGAGUUUAUCAUG | -2.99
GGAUCUUCUCGAUCUAACAAAAAAGACAAAUCUGCCACAAAGCUUGCGAGUCUCUUCGGAUGCAGAGGCGGCAGACUUCGGUGGCGCGAUAGCGCUAACGUUAUCAACUCUGACACGCAAAACGCGUGCUCCGUUGAAUGGAGUUUAUCAUG | ≤ -4.2
GGACCUUUUCGAUCUAACAAAUAAGACAAAUCUGCCACAAAGCUUGAGAUCAUUUUCGGAUGCAGAGGCGGCAGCCUUCGGUGGCGCGAUAGCGCCAACGUUCUCAUCUAUGACAGGCAAAACGCGUGCUCCGUUGAAUGGAGUUUAUCAUG | ≤ -4.2
GGAUCUUCUCGAUCUAACAAAAAAGACAAAUCUGCCACAAAGCUUGAGAACAUCUUCGGAUGCAGAGGCGGCAGCCUUCGGUGGCGCGAUAGCGCCAACGUUGUCAACUAGGACACGCAAAUCGCGUGCUCCGUUGAAUGGAGUUUAUCAAG | ≤ -4.2
GGAUCUUCUCGAUAUUACAAAAAAGACAAAUCUGCCACAAAGCUUGAGAGCAUCUUCGGAUGCAGAGGCGGCAGCCUUCGGUGGCAGGAUAGCGCCAACGUUCUCAACUAUGACACGCAAAACGCGUGCUCCGUUGAAUGGAGUUUAUCAUG | -3.84
GGAUCUUCUCGAUCUAACAAAAAAGACAAAUCUGCCACAAAGCUUGAGAGGAUCUUCGGAUGCAGAGGCGGCGGCCUUCGGUGGCGCGAUAGCUUCAACGUUCUCAACUAUGACACGAAAAACGCGUGCUCCGUUGAAUGGUGUUUAUCAUA | ≤ -4.2
